From the supplement of paper PMC7877785
± gives the uncertainty stated by the source.

Assay: self-splicing fitness, log relative to wild type (ln ratio); higher = more splicing; Tetrahymena group I intron in knt gene, E. coli kanamycin selection, DiMSum; sequences stand for … in CUCUCU…GGAGGGAAAAGUUAUCAGGCAUGCACCUGGUAGCUAGUCUUUAAACCAAUAGAUUGCAUCGGUUUAAAAGGCAAGACCGUCAAAUUGCGGGAAAGGGGUCAACAGCCGUUCAGUACCAAGUCUCAGGGGAAACUUUGAGAUGGCCUUGCAAAGGGUAUGGUAAUAAGCUGACGGACAUGGUCCUAACCACGCAGCCAAGUCCUAAGUCAACAGAUCUUCUGUUGAUAUGGAUGCAGUUCACAGACUAAAUGUCGGUCGGGGAAGAUGUAUUCUUCUCAUAAGAUAUAGUCGGACCUCUCCUUAAUGGGAGCUAGCGGAUGAAGUGAUGCAACACUGGAGCCGCUGGGAACUAAUUUGUAUGCGAAAGUAUAUUGAUUAGUUUUGGAGUACUCGUGGUCG
Outline: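 Pooled colonies went to amplicon sequencing on an Illumina HiSeq 2500 after six replicate transformations. The plates were LB agar with 100 μg/mL carbenicillin, 50 μM IPTG and 0.2% rhamnose, with or without 25 μg/mL kanamycin, incubated overnight at 37°C or 30°C. The E. coli BL21(DE3) library had all eight P1ex-region intron nucleotides randomised, the intron placed in the knt kanamycin-resistance gene on pET-22b(+). DiMSum fitness is the error-weighted combination of replicate fold changes, kanamycin against none, normalised to wild type.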

Sequence	self-splicing fitness (ln) (30 °C)	self-splicing fitness (ln) (37 °C)
UUCUAGCAAUAUUACGGAGU	-2.24 ± 0.2	-2.56 ± 0.26
GGCCAGCAAUAUUACGCCGG	-3.21 ± 0.17	-1.99 ± 0.23
GAUGAGCAAUAUUACGCACC	-1.94 ± 0.44	-1.13 ± 0.31
GGUAAGCAAUAUUACGUUCG	-0.34 ± 0.15	-0.4 ± 0.18
UCCGAGCAAUAUUACGGGAG	-3.81 ± 0.22	-2.79 ± 0.19
ACGGAGCAAUAUUACGGCGU	-2.38 ± 0.2	-1.48 ± 0.19
AAACAGCAAUAUUACGCCCA	-1.29 ± 0.15	-0.816 ± 0.15
GUACAGCAAUAUUACGGUUA	-0.862 ± 0.058	-0.00855 ± 0.057
CAUGAGCAAUAUUACGGAUA	-3.32 ± 0.22	-1.68 ± 0.24
CCGAAGCAAUAUUACGUCGC	-3.18 ± 0.26	-3.07 ± 0.34
AAUGAGCAAUAUUACGCUGG	-3.22 ± 0.2	-2.08 ± 0.25
AACAAGCAAUAUUACGGAAU	-2.64 ± 0.13	-1.75 ± 0.14
UUGUAGCAAUAUUACGACGG	-0.599 ± 0.16	-1.63 ± 0.17
UAGCAGCAAUAUUACGCUCA	-0.152 ± 0.095	0.307 ± 0.1
AGUGAGCAAUAUUACGUGCG	-3.31 ± 0.33	-2.08 ± 0.37
AUCCAGCAAUAUUACGACCA	-0.725 ± 0.15	-0.224 ± 0.17
UUUGAGCAAUAUUACGGCAG	-1.6 ± 0.17	-1.56 ± 0.21
ACAAAGCAAUAUUACGUACC	-1.13 ± 0.1	-0.353 ± 0.12
AAGGAGCAAUAUUACGUAAC	-3.28 ± 0.25	-2.96 ± 0.43
ACUAAGCAAUAUUACGAACA	-1.86 ± 0.18	-0.417 ± 0.19
GUCGAGCAAUAUUACGCGCA	-0.713 ± 0.26	-1.17 ± 0.21
CCCGAGCAAUAUUACGUCCG	-2.11 ± 0.4	-1.98 ± 0.36
AAUGAGCAAUAUUACGGCGU	-1.43 ± 0.07	-0.25 ± 0.097
CCGGAGCAAUAUUACGAACC	–	-1.97 ± 0.41
UUGUAGCAAUAUUACGAGAG	-2.07 ± 0.3	–
UAUGAGCAAUAUUACGAUGA	-1.41 ± 0.12	-1.68 ± 0.16

Sequence	self-splicing fitness (ln) (30 °C)	self-splicing fitness (ln) (37 °C)
GCUCAGCAAUAUUACGGCGA	-1.73 ± 0.12	-1.36 ± 0.19
UGUGAGCAAUAUUACGUGAU	-5.21 ± 0.36	–
GUCAAGCAAUAUUACGAUUA	-1.04 ± 0.1	-0.259 ± 0.068
CGAAAGCAAUAUUACGAAAU	-2.32 ± 0.19	-2.96 ± 0.24
UGCGAGCAAUAUUACGGUAA	-2.4 ± 0.17	-2.22 ± 0.16
CAACAGCAAUAUUACGAUGG	-0.426 ± 0.056	0.257 ± 0.075
UCGGAGCAAUAUUACGGCCG	-1.49 ± 0.31	–
CUGAAGCAAUAUUACGGAAC	–	-2.55 ± 0.3
GAGUAGCAAUAUUACGCUGA	–	-1.55 ± 0.39
GGCGAGCAAUAUUACGCUGG	-1.39 ± 0.36	–
CGGUAGCAAUAUUACGGUCA	-0.916 ± 0.092	-0.275 ± 0.084
GUUCAGCAAUAUUACGAUAA	-0.196 ± 0.084	0.169 ± 0.097
GUACAGCAAUAUUACGCUUU	-2.99 ± 0.12	-1.19 ± 0.12
CACGAGCAAUAUUACGCAAU	-4.23 ± 0.19	-2.99 ± 0.16
GAUGAGCAAUAUUACGGAUU	-3.44 ± 0.44	-1.68 ± 0.2
GUUGAGCAAUAUUACGCCCG	-2.7 ± 0.49	–
GAGGAGCAAUAUUACGGUAA	-3.65 ± 0.37	-2.22 ± 0.36
UUUAAGCAAUAUUACGGUCU	-2.5 ± 0.14	-1.66 ± 0.15
CUAUAGCAAUAUUACGCUUC	-2.46 ± 0.36	-1.14 ± 0.31
UUUUAGCAAUAUUACGCUGG	-3.74 ± 0.39	-2.88 ± 0.44
AGUCAGCAAUAUUACGUUCG	-1.9 ± 0.13	-1.46 ± 0.15
UCGUAGCAAUAUUACGAUAG	–	-3.12 ± 0.38
UCCAAGCAAUAUUACGGGUA	-0.53 ± 0.062	0.199 ± 0.066
CCAAAGCAAUAUUACGGGGC	-3.09 ± 0.19	-2.93 ± 0.27
GAGUAGCAAUAUUACGUGCG	-2.61 ± 0.17	0.0549 ± 0.13
